For 1 substance, Kd results are on record in publication doi:10.64898/2025.12.19.695307.

The experiment deals with R1-32 (human). In words: BLI.

For orientation: Kd means the constant that tells how readily two partners part at equilibrium. Higher therefore signals weaker binding.

In turn, “SARS-CoV-2 Omicron BA.2.11 RBD (from UniProt P0DTC2 332-527) (domain or fragment)” came in with a Kd greater than 55 nM.
